The subject of experiment [1] is Human chondrosarcoma cell HTB-94. The experiment is described as follows: Viability of cells (Premix WST-1 Cell Proliferation Assay System). Particulars: 20 μM, 2 hours before the addition of anti-PTHrP MoAb (FIG. 2). It counts as cell-based. As to the method: Human chondrosarcoma cell HTB-94 (ATCC) was suspended in Dulbecco's Modified Eagle's Medium (DMEM) containing 10% FBS, L-glutamine, penicillin-streptomycin (all are available from GIBCO-BRL), and was cultured and proliferated at 37° C. under 5% CO2 wet condition.
That is, reduction ratio of tetrazolium salt (WST-1) by viable cells was determined from the increase in OD450, and it was considered as the index of the number of viable cells.
(In general: Formazan colour is commonly taken as a measure of viable cells.)

Experiment [2] deals with HTB-94 cells. Kind of experiment: Western blotting of HTB-94 cell lysates. It counts as cell-based, human. As to the method: In the experiment with regard to the following collagen type-X, the cells were treated by anti-PTHrP MoAb for further five days (for total seven days). All the cell lysates (50 μg as protein) of the above-mentioned cells were separated by SDS-PAGE using 12% gel and blotted on a nitrocellulose film (Bio-Rad Laboratories). The blocked film was incubated together with an anti-procaspase-3 antibody (Wako Pure Chemical) diluted to 1/100, an anti-PARP antibody, an anti-Bcl-2 antibody and an anti-Bax antibody (both from Santa Cruz Biotechnology), an anti-collagen type X antibody (Calbiochem-Novabiochem Corporation) and a peroxidase conjugated secondary antibody (Amersham) diluted to 1/1000.
Here, PARP (poly(ADP-ribose) polymerase) is an enzyme important for the survival in a cell, and caspase-3 causes cleavage of this PARP.
Detection was performed using ECL Western blotting detection system (Amersham). Each blot was further re-detected by ECL using anti-o-actin antibody (Santa Cruz Biotechnology) and the peroxidase conjugated secondary antibody.
A general note: Immunoblotting shows a protein as a band on a membrane.

Experiment [3] has as its system HTB-94 cells. Kind of experiment: Immunocytochemistry using anti-collagen type X antibody. Format: cell-based, human. As to conditions: particularly at high concentration, seven days. How it is done:
Immunocytochemistry was performed by streptavidin-peroxidase method using histofine SAB-PO kit ([…]). […] Subsequently, the cells were transferred to 3% H2O2 methanol to block endogenous peroxidase activity, washed with PBS (pH 7.2), and then blocked with PBS containing normal 10% serum (secondary antibody) of the congeneric origin in order to make the background minimum and incubated with anti-collagen type X antibody (primary antibody) at room temperature for 2 hours. Afterwards the cells were washed with PBS, incubated with the secondary antibody at room temperature in a wet chamber for 20 minutes, and incubated with peroxidase conjugated streptavidin ([…]) for 20 minutes under the same conditions. Finally, coloring reaction was performed with 3,3-diaminobenzidine tetrahydrochloride (DAB) reagent (Dojindo). The cells were counterstained with hematoxylin and microscopically observed at 200-fold and 400-fold magnification.

Experiment [4] has as its system HTB-94 cells. The experiment is described as follows: TUNEL staining. As to conditions: two days. Format: cell-based, human. As to the method: TUNEL staining was performed using Apoptag Peroxidase Kit (Intergen Company). […] Subsequently, the cells were incubated with a TdT reaction mixture (TdT solution+[…] and dATP) at 37° C. for 60 minutes, and further incubated with peroxidase conjugated anti-dioxygenin antibody at room temperature for 30 minutes. The cells were stained with DAB and then counterstained with Mayer's hematoxylin and microscopically observed at 200-fold, 400-fold and 600-fold magnification.

Experiment [5] has as its system HTB-94 cells. Kind of experiment: RT-PCR. It counts as cell-based, human. As to conditions: 100 μg/ml, two days, vs control. As to the method: PCR of cDNA was performed using Ready-to-Go PCR beads (Pharmacia) and primers for human Bcl-2, Bax, Ihh, ColX (α1) and β-actin amplification (12.5 pmol(s) each).
Amplification was performed using Perkin-Elmer/Cetus DNA Thermal Cycler (TAKARA SHUZO) on the conditions of 30 cycles each of 94° C., 0.5 min; 55° C., 0.5 min; 72° C., 0.5 min and last extension reaction at 72° C. for 7 minutes.
Electrophoresis of the obtained PCR product (10 μL) was carried out on a 4% agarose gel, and stained and observed with ethidium bromide.

Experiment [6] has as its system HTB-94 cells. The experiment is described as follows: DNA fragmentation assay. Format: cell-based, human. As to conditions: two days. As to the method:
That is, the cells were dissolved in a dissolution buffer, DNA was isolated, extracted with an organic solvent and ethanol precipitation was carried out. The precipitated DNA was centrifuged (12,000 g, 10 min) and then washed with 80% ethanol, and dissolved in 30 μl of TE buffer. Each sample (10 μl) was subjected to electrophoresis on a 1.2% agarose gel, and stained with ethidium bromide.

In experiment [7] the target is T1, PTHrP (1-34) (Homo sapiens, UniProt P12272). The experiment is described as follows: Screening of hybridomas by solid phase RIA of culture supernatant. Format: binding. Also on record: purchased Peninsula. As to conditions: hybridoma culture supernatant. How it is done: Hybridomas #23-57-154 and #23-57-137-1 which produce monoclonal antibody to human PTHrP (1-34) were produced as follows (Sato, K. et al., J. Bone Miner. Res. 8, 849-860, 1993). The amino acid sequence of human PTHrP (1-34) is shown in the SEQ ID No. 75.
Screening of hybridomas was performed by measuring and selecting the existence of a PTHrP recognizing antibody by applying solid phase RIA method to the culture supernatant of the wells where growth was recognized in HAT culture medium. Hybridomas were collected from the wells where binding ability with an antibody was recognized, suspended to the culture medium prepared by adding OPI-supplement (Sigma) to the RPMI-1640 culture medium containing FCS 15%, and the hybridomas was simplified by the limiting dilution method.

Experiment [8] concerns the target T1, PTHrP (1-34). The experiment is described as follows: ELISA measurement of antigen binding ability. The arrangement: coated with 100 μl of human PTHrP(1-34) (Peptide Research Institute); purchased Peptide Research Institute. As to conditions: expressed in COS-7 cells; H chain humanized version a. How it is done:
The ELISA plate for antigen binding measurement was prepared as follows. Each well of a 96 well plate for ELISA was coated with 100 μl of human PTHrP(1-34) (Peptide Research Institute) adjusted to 1 μg/ml concentration by the coating buffer. […] After the plate was incubated at room temperature and washed with PBS-Tween20, 100 μl of alkaline phosphatase (TAGO) conjugated goat anti-man IgG antibody was added. After the plate was incubated at room temperature and washed with PBS-Tween20, 1 mg/ml of a substrate solution (Sigma104, p-nitrophenylphosphate, SIGMA) was added, and, next, 405 nm absorption was measured with a micro plate reader (Bio Rad).
The ELISA plate for antigen binding measurement was prepared as follows. Each well of a 96 well plate for ELISA was coated with 100 μl of human PTHrP(1-34) adjusted to 1 μg/ml concentration by the coating buffer. After blocking with 200 μl of the dilution buffer, the culture supernatant of the COS-7 cells in which hybrid antibody or humanized antibody was expressed or the purified hybrid antibody or the humanized antibody was stepwise diluted and added to each well. After the plate was incubated at room temperature and washed with PBS-Tween20, 100 μl of alkaline phosphatase (TAGO) conjugated goat anti-man IgG antibody was added. After the plate was incubated at room temperature and washed with PBS-Tween20, 1 mg/ml of a substrate solution (Sigma104, p-nitrophenylphosphate, SIGMA) was added, and 405 nm absorption was then measured on a micro plate reader (Bio Rad).
(In general: An ELISA detects its analyte on a solid surface through an enzyme-linked reagent.)

Setting [9] is: 0, 10, 30, 50, 100, and 200 μg/ml, two days.

As to DEVD-CHO, the “effect of caspase-3 inhibitor on the effect of anti-PTHrP MoAb on cell viability” value in experiment [1] is “inhibited the effect of this anti-PTHrP MoAb”.

B1: anti-PTHrP MoAb: mouse monoclonal antibody to human PTHrP (1-34) prepared from hybridoma #23-57-137-1 (FERM BP-5631) (antibody, V domains shown)
VH: EVQLVESGGDLVKPGGSLKLSCAASGFTFSSYGMSWIRQTPDKRLEWVATISSGGSYTYYPDSVKGRFTISRDNAKNTLYLQMSSLKSEDTAMFYCARQTTMTYFAYWGQGTLVTVSA
VL: QLVLTQSSSASFSLGASAKLTCTLSSQHSTYTIEWYQQQPLKPPKYVMDLKQDGSHSTGDGIPDRFSGSSSGADRYLSISNIQPEDEAMYICGVGDTIKEQFVYVFGGGTKVTVLGQP
Consider B1, for which, in the experiment with HTB-94 cells [2] (setting [9]), the “85 kDa fragment of PARP” value is given as “increased depending on the concentration”, the “Bax (protein)” value is listed as “increased as the concentration of anti-PTHrP MoAb increased” and the “Bcl-2 (protein)” value is listed as “decreased as the concentration of anti-PTHrP MoAb increased”. The “procaspase-3 (35 kDa)” value in the experiment with HTB-94 cells [2] (100 μg/ml, two days) is “decreased”. The “procaspase-3 (35 kDa)” value in the experiment on HTB-94 cells [2] (200 μg/ml, two days) is “decreased”. The “anti-PTHrP MoAb concentration at maximum collagen type X” value in the experiment on HTB-94 cells [2] (total seven days) was determined as 50 µg/mL. Also, in the experiment on HTB-94 cells [2] (treated vs untreated cells, total seven days), the “collagen type X (protein)” value is reported as “more collagen type X in the cells treated with Anti-PTHrP MoAb than in untreated cells”. Besides, in the experiment with HTB-94 cells [3], the “cell morphology (differentiation)” value is listed as “a number of cells which roundly expanded were observed”. Further, the “frequency of appearance of cells in apoptosis (stained brown)” value in the experiment on HTB-94 cells [4] (0, 10, 100, or 200 μg/ml) is “increased depending on the concentration”. Also, the “morphological changes characteristic of apoptosis” value in the experiment with HTB-94 cells [4] (after treatment) was “contraction and round outline were also recognized”. For the same molecule, in the experiment on HTB-94 cells [5], the “amount of expression of Bax (mRNA)” value is reported as “increased” and the “amount of expression of Bcl-2 (mRNA)” value is on record as “decreased”. In addition, the “fragmentation of DNA in nucleosome specific to apoptosis” value in the experiment on HTB-94 cells [6] (10 μg/ml) is given as “observed”. The “fragmentation of DNA in nucleosome specific to apoptosis” value in the experiment with HTB-94 cells [6] (200 μg/ml) is given as “observed”. Moreover, in the experiment with PTHrP (1-34) [7], the “binding ability with PTHrP (1-34)” value is “strong binding ability”.

B2: m/hMBC1Laλ: hybrid antibody: L chain mouse FR1, 2/human FR3, 4 (version a); humanized H chain (antibody, V domains shown)
VH: QVQLVESGGGVVQPGRSLRLSCAASGFTFSSYGMSWVRQAPGKGLEWVATISSGGSYTYYPDSVKGRFTISRDNSKNTLYLQMNSLRAEDTAVYYCARQTTMTYFAYWGQGTLVTVSS
VL: QLVLTQSSSASFSLGASAKLTCTLSSQHSTYTIEWYQQQPLKPPKYVMDLKQDGSHSTGDGIPDRFSGSSSGAERYLTISSLQSEDEADYYCGVGDTIKEQFVYVFGGGTKLTVL
Consider B2, for which the “PTHrP binding ability compared with chimeric antibody” value with PTHrP (1-34) [8] is “equivalent to chimera #23-57-137-1 antibody”.

B3: hmmMBC1L(λ): hybrid antibody: L chain human FR1/mouse FR2, 3, 4; humanized H chain (antibody, V domains shown)
VH: QVQLVESGGGVVQPGRSLRLSCAASGFTFSSYGMSWVRQAPGKGLEWVATISSGGSYTYYPDSVKGRFTISRDNSKNTLYLQMNSLRAEDTAVYYCARQTTMTYFAYWGQGTLVTVSS
VL: QLVLTQSPSASASLGASVKLTCTLSSQHSTYTIEWYQQQPLKPPKYVMDLKQDGSHSTGDGIPDRFSGSSSGADRYLSISNIQPEDEAMYICGVGDTIKEQFVYVFGGGTKVTVL
For the molecule B3, the “PTHrP binding ability compared with chimeric antibody” value with PTHrP (1-34) [8] is “equivalent to chimera #23-57-137-1 antibody”.

B4: m/hMBC1Ldλ: hybrid antibody: L chain mouse FR1, 2/human FR3, 4 (version d, 87 isoleucine); humanized H chain (antibody, V domains shown)
VH: QVQLVESGGGVVQPGRSLRLSCAASGFTFSSYGMSWVRQAPGKGLEWVATISSGGSYTYYPDSVKGRFTISRDNSKNTLYLQMNSLRAEDTAVYYCARQTTMTYFAYWGQGTLVTVSS
VL: QLVLTQSSSASFSLGASAKLTCTLSSQHSTYTIEWYQQQPLKPPKYVMDLKQDGSHSTGDGIPDRFSGSSSGAERYLTISSLQSEDEADYICGVGDTIKEQFVYVFGGGTKLTVL
For B4, the “PTHrP binding ability compared with chimeric antibody” value in the experiment with PTHrP (1-34) [8] was “equivalent to chimera #23-57-137-1 antibody”.
